5 molecules from US20200261603A1 (published 2020) can be followed below.

Positions count from the first letter of the chain named. Where two headings read alike, the source gives them in different places.

What is called Kd is the free concentration of one partner at which half of the binding sites on the other are occupied at equilibrium, for simple one-to-one binding. Read a high Kd as weaker binding.

For experiment [1], the target named is T1, human cancer-specific MUC1 (human, UniProt P15941 24-1255, cancer-specific incomplete O-glycosylation (T, Tn, 2,3ST) of threonine at position 9 of the 20-amino acid tandem repeat … (SEQ ID NO: 15), as the background describes it). As to the kind of experiment: Cell ELISA. In general terms: An ELISA detects its analyte on a solid surface through an enzyme-linked reagent.

Experiment [2] deals with T1, human cancer-specific MUC1. Briefly: Cell ELISA. This is another data set of the same source.

B1: P10-1 Fab (Fab, V domains shown)
VH: QVQLVQSGAEVKKPGASVKVSCKASGYTFTNYGLSWVRQAPGQGLEWMGENHPGSGIIYHNEKFRGRVTLTADRSTSTAYMELSSLRSEDTAVYYCARSSGTRGFAYWGQGTLVTVSS
VL: DVVMTQTPLSLSVTPGQPASISCRSSQSIVHSNGNTYLEWYLQKPGQSPQLLIYRVSNRFSGVPDRFSGSGSGTDFTLKISRVEAEDVGVYYCFQGSHGPWTFGQGTKLEIKR
In turn, B1 gave a dissociation constant Kd in experiment [1] of 0.35 nM.

B2: P10-2 Fab (Fab, V domains shown)
VH: B1 VH with A106D
VL: B1 VL
modifications: heavy chain N-terminal glutamine was modified into pyroglutamic acid in a great majority of purified antibodies
With B2, the equilibrium dissociation constant (Kd) in experiment [1] was 0.29 nM; in experiment [2], 0.37 nM.

B3: P10-1 Fab Dye (Fab, V domains shown)
VH: B1 VH
VL: B1 VL
modifications: IRDye800CW (NHS ester) on Lys of the Fab fragment; number and positions not stated
In experiment [1], B3 returned a dissociation constant (Kd) of 0.66 nM.

B4: P10-2 Fab DFO (Fab, V domains shown)
VH: B1 VH with A106D
VL: B1 VL
modifications: p-SCN-Bn-deferoxamine on Lys of the Fab fragment; number and positions not stated; p-SCN-Bn-deferoxamine on Lys of the Fab fragment; number and positions not stated; N-terminal glutamine largely pyroglutamic acid
Take B4: binding in experiment [2] was characterised by a dissociation constant (Kd) of 0.36 nM.

B5: P10-2 Fab Dye (Fab, V domains shown)
VH: B1 VH with A106D
VL: B1 VL
modifications: IRDye800CW (NHS ester) on Lys of the Fab fragment; number and positions not stated; IRDye800CW (NHS ester) on Lys of the Fab fragment; number and positions not stated; N-terminal glutamine largely pyroglutamic acid
Regarding B5, the affinity in experiment [1], expressed as Kd, was 0.49 nM.
